Results on five molecules are retold here after patent US20160333075A1 (MAB EXPLORATIONS SDN BHD, published 2016).

Where a chain is given by its changes, count along the chain named.

Common to all, as to test: cell-based or functional assay
The target in experiment [1] is enterovirus 71 (EV71) virions (enterovirus 71).
Experiment [2] has the same target. This is another data set of the same source.
Experiment [3] shares this target. This is another data set of the same source.

B1: hVL1 + hVH1 E19 (antibody, V domains shown)
VH: DVQLQESGPGLVKPSQTLSLTCTVSGYSITSGFYLNWIRQHPCKGLEWIGYINYGGSINYNPSLKSRVTISRDTSKNQFSLKLSSVTAADTAVYYCATMPNSWYFDVWGRGTLVTVSS
VL: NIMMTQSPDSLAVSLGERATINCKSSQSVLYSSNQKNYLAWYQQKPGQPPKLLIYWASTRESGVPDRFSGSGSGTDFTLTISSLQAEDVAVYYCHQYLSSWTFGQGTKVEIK
In the case of B1, in experiment [1], the “Average IC50” value amounted to 0.0892 µg/mL, the “IC50 (#1)” value is 0.0565 µg/mL and the “IC50 (#2)” value came out at 0.122 µg/mL.

B2: hVL1 + hVH3 E19 (antibody, V domains shown)
VH: B1 VH with D1E, Q5V, I38V, C43G, G45K, T69S, S84T, R110T
VL: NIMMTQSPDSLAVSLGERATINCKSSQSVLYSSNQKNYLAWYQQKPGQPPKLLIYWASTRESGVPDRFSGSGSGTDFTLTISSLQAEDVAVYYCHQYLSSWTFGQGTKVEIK
Take B2: in experiment [1], the “Average IC50” value was 0.0896 µg/mL, the “IC50 (#1)” value turned out to be 0.0965 µg/mL and the “IC50 (#2)” value amounted to 0.0826 µg/mL.

B3: hVL1 + hVH2 E19 (antibody, V domains shown)
VH: B1 VH with C43G, G45K, R110T
VL: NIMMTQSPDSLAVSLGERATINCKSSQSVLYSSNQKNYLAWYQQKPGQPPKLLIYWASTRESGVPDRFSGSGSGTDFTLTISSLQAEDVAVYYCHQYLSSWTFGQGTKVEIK
For the molecule B3, in experiment [1], the “Average IC50” value came to 0.119 µg/mL, the “IC50 (#1)” value came out at 0.118 µg/mL and the “IC50 (#2)” value turned out to be 0.121 µg/mL.

B4: Recombinant chimeric E18 VL + VH (antibody, V domains shown)
VH: QIQLVQSGPELKKPGETVKISCKASGYTFTRYGMSWVKQAPGKGLKWMGWINTYSGVPTYADDFKGRFAFSLETSASTAYLQINNLKNEDTATYFCARRGYSNYYPMDFWGQGTSVTVSS
VL: DIKMTQSPSSMYASLGERVTITCKASQDIKSYLSWYQQKPWKSPKTLIYYAKNLADGVPSRFSGSGFGQDYSLTISSLESDDTATYYCLQHGESPYTFGSGTKLEIKR
For B4, in experiment [2], the “IC50 in ATCC cells relative to the parental antibody” value was roughly 2 fold and the “IC50 in NIBSC cells relative to the parental mouse antibody” value was roughly 5 fold. Besides, in experiment [3], the “Inhibitory concentration 50 (IC50), Vero ATCC” value turned out to be 0.585 µg/mL; the “Inhibitory concentration 50 (IC50), Vero NIBSC” value came out at 0.966 µg/mL; the “end point PRNT50, Vero ATCC” value was 625 ng/mL; the “end point PRNT50, Vero NIBSC” value was 2500 ng/mL.

B5: Recombinant chimeric E20 VL + VH (antibody, V domains shown)
VH: EVQLVESGGGLVKPGGSLKLSCAASGFTFNIYAMSWVRQTPEKRLEWVATISDGGSYTYYPDNVKGRFTISRDNAKNNLYLQMSHLKSEDTAMYYCVRDRGNYYSRAFPYAYWGQGTLVTVSA
VL: SIVMTQTPKFLPVSAGDRVTMTCKASQSVGNNVAWYQQKSGQSPKLLIYYASNRYTGVPDRFTGSGSGTDFTFTISSVQVEDLAVYFCQQHYSSPPTFGAGTKLELK
Regarding B5, in experiment [3], the “Inhibitory concentration 50 (IC50), Vero ATCC” value came to 3.18 µg/mL; the “end point PRNT50, Vero ATCC” value stood at 5000 ng/mL; the “end point PRNT50, Vero NIBSC” value was greater than 10000 ng/mL.
